Experimental data reported in US20190382484A1 (Chugai, published 2019).
Changes are numbered by the printed parent chain. Blank lines part the entries; values can stand above or below the binder they belong to.

Assays:
[1] = target: T1, antibody-half molecule A1 with PF1H / PF1L-k0 (PF1H-DA303v2/PF1L-k0); assay: SPR (Biacore T200), about 50 RU of half molecule A captured via biotinylated antigen peptide, half molecule B as analyte at 2.5 mg/mL, 25 C
Protocol: (§1) The interaction between the obtained antibody-half molecules was analyzed using Biacore (registered trademark) T200. Biotin CAPture Kit, Series S (GE Healthcare) was used for the measurement, and HBS-EP+10X (GE Healthcare) diluted 1/10th was used as a running buffer. The measurement temperature was 25° C. For the sensor chip, Series S Sensor Chip CAP (GE Healthcare) onto which previously-biotinylated antigen peptides were allowed to interact and thereby immobilized was used. These chips were allowed to capture approximately 50 RU of the antibody-half molecule A of interest and then interact with the antibody-half molecule B of interest diluted with the running buffer at 2.5 mg/mL for 180 seconds at a flow rate of 30 μL/min, and measurement was carried out. The molar binding ratio was calculated based on the following Formula 2. The antibody-half molecule A captured on the chip was washed as described in the instructions attached to the kit, and the chip was regenerated and reused.
(§2) At this time, for the antibody-half molecules to be captured, PF1H (SEQ ID NO: 22), which is the H chain variable region portion of the anti-human IL6 receptor antibody described in WO 2009/041621, was used as the H chain variable region portion, PF1L (SEQ ID NO: 23), which is the L chain variable region portion of the anti-human IL6 receptor antibody described in WO 2009/041621, was used as the L chain variable region portion, and k0 was used as the L chain constant region portion. In addition, for the antibody-half molecules used as analytes, IC17H (SEQ ID NO: 24), which is the anti-KLH antibody described in WO 2015/174439, was used as the H chain variable region, IC17L (SEQ ID NO: 25), which is the anti-KLH antibody described in WO 2015/174439, was used as the L chain variable region, and k0 was used as the L chain constant region.

[2] = target: T1, antibody-half molecule A1 with PF1H / …; assay: SPR (Biacore T200), about 50 RU of half molecule A captured via biotinylated antigen peptide, half molecule B as analyte at 2.5 mg/mL, 25 C (Example 10)
Protocol: as §1
(§3) At this time, for the antibody-half molecule to be captured, PF1H (SEQ ID NO: 22), which is the H chain variable region portion of the anti-human IL6 receptor antibody described in WO 2009/041621, was used as the H chain variable region portion, PF1L (SEQ ID NO: 23), which is the L chain variable region portion of the anti-human IL6 receptor antibody described in WO 2009/041621, was used as the L chain variable region portion, and k0 was used as the L chain constant region portion. In addition, for the antibody-half molecules used as analytes, IC17H (SEQ ID NO: 24), which is the anti-KLH antibody described in WO 2015/174439, was used as the H chain variable region, IC17L (SEQ ID NO: 25), which is the anti-KLH antibody described in WO 2015/174439, was used as the L chain variable region, and k0 was used as L chain constant region.

[3] = target: antibody-half molecule A4 with PF1H / PF1L-k0 (PF1H-DA424v2/PF1L-k0); assay: SPR (Biacore T200), about 50 RU of half molecule A captured via biotinylated antigen peptide, half molecule B as analyte at 2.5 mg/mL, 25 C
Protocol: as §1, §2

[4] = target: antibody-half molecule A3 with PF1H / PF1L-k0 (PF1H-DA405v2/PF1L-k0); assay: as above
Protocol: as §1, §2

[5] = target: antibody-half molecule A2 with PF1H / PF1L-k0 (PF1H-DA402v2/PF1L-k0); assay: as above
Protocol: as §1, §2

[6] = target: antibody-half molecule A5 with PF1H / PF1L-k0 (PF1H-DA430v2/PF1L-k0); assay: as above
Protocol: as §1, §2

[7] = target: antibody-half molecule A6 with PF1H / PF1L-k0 (PF1H-DA303v2.n.n/PF1L-k0); assay: SPR (Biacore T200), about 50 RU of half molecule A captured via biotinylated antigen peptide, half molecule B as analyte at 2.5 mg/mL, 25 C (Example 10)
Protocol: as §1, §3

[8] = target: antibody-half molecule A7 with PF1H / PF1L-k0 (PF1H-DA303v2.n.HATF.B/PF1L-k0); assay: as above
Protocol: as §1, §3

molar binding ratio [1]: 0.38
molar binding ratio [2]: 0.54
B1: antibody-half molecule B1 with IC17H / IC17L-k0 (IC17H-DB220v2/IC17L-k0) (antibody, human IgG1, kappa)
heavy: QVQLQQSGPQLVRPGASVKISCKASGYSFTSYWMHWVNQRPGQGLEWIGMIDPSYSETRLNQKFKDKATLTVDKSSSTAYMQLSSPTSEDSAVYYCALYGNYFDYWGQGTTLTVSSASTKGPSVFPLAPSSKSTSGGTAALGCLVKDYFPEPVTVSWNSGALTSGVHTFPAVLQSSGLYSLSSVVTVPSSSLGTQTYICNVNHKPSNTKVDKKVEPKSCDKTHTSPPSPAPELLGGPSVFLFPPKPKDTLMISRTPEVTCVVVDVSHEEPEVKFNWYVDGVEVHNAKTKPREEQYNSTYRVVSVLTVLHQDWLNGKEYKCKVSNDALPMPIEETISKAKGQPREPQVYTLPPSRDELTKNQVSLTCLVKGFYPSDIAVEWESNGQPENNYKTTPPYLDSDGSFFLYSDLTVDKSRWQQGNVFSCSVMHEALHNHYTQESLSLSP
light: DIQMTQSSSSFSVSLGDRVTITCKASEDIYNRLAWYQQKPGNAPRLLISGATSLETGVPSRFSGSGSGKDYTLSITSLQTEDVATYYCQQYWSTPYTFGGGTKLEVKRTVAAPSVFIFPPSDEQLKSGTASVVCLLNNFYPREAKVQWKVDNALQSGNSQESVTEQDSKDSTYSLSSTLTLSKADYEKHKVYACEVTHQGLSSPVTKSFNRGEC

molar binding ratio [3]: 0.25
B2: antibody-half molecule B4 with IC17H / IC17L-k0 (IC17H-DB424v2/IC17L-k0) (antibody, human IgG1, kappa)
heavy: B1 heavy with E356N
light: B1 light

molar binding ratio [4]: 0.54
B3: antibody-half molecule B3 with IC17H / IC17L-k0 (IC17H-DB405v2/IC17L-k0) (antibody, human IgG1, kappa)
heavy: B1 heavy with D408T
light: B1 light

molar binding ratio [5]: 0.63
B4: antibody-half molecule B2 with IC17H / IC17L-k0 (IC17H-DB402v2/IC17L-k0) (antibody, human IgG1, kappa)
heavy: B1 heavy with D408H
light: B1 light

molar binding ratio [6]: 0.27
B5: antibody-half molecule B5 with IC17H / IC17L-k0 (IC17H-DB430v2/IC17L-k0) (antibody, human IgG1, kappa)
heavy: B1 heavy with E356L
light: B1 light

molar binding ratio [7]: 0.42
B6: antibody-half molecule B6 with IC17H / IC17L-k0 (IC17H-DB220v2.n.n/IC17L-k0) (antibody, human IgG1, kappa)
heavy: B1 heavy with E438K
light: B1 light

molar binding ratio [8]: 0.32
B7: antibody-half molecule B7 with IC17H / IC17L-k0 (IC17H-DB220v2.n.HATF.A/IC17L-k0) (antibody, human IgG1, kappa)
heavy: B1 heavy with S363H, F404A, E438K
light: B1 light
